Reference: the Human Domainome abundance scans (Beltran et al. 2025)
± gives the uncertainty stated by the source.

B1: Kinesin-like protein KIF16B, residues 1213 to 1273; numbered along this chain, Q96L93 (parent)
chain: ETWTVFRRYSRFREMHKTLKLKYAELAALEFPPKKLFGNKDERVIAERRSHLEKYLRDFFS

Variants of: B1
Assay: abundance fitness (aPCA) (normalised: wild type 0, dead -1); higher = more abundant; growth selection in yeast, the domain comes from the species named
Settings: Homo sapiens
For ETWTVFRRYSRFREMSKTLKLKYAELAALEFPPKKLFGNKDERVIAERRSHLEKYLRDFFS [H16S], the abundance fitness was -0.083 ± 0.058.
For ETWTVFRRYSRFREMRKTLKLKYAELAALEFPPKKLFGNKDERVIAERRSHLEKYLRDFFS [H16R], the abundance fitness was -0.073 ± 0.046.
ETWTVFRRYSRFREMQKTLKLKYAELAALEFPPKKLFGNKDERVIAERRSHLEKYLRDFFS [H16Q] showed an abundance fitness of -0.194 ± 0.083.
ETWTVFRRYSRFREMWKTLKLKYAELAALEFPPKKLFGNKDERVIAERRSHLEKYLRDFFS [H16W] gave an abundance fitness of 0.534 ± 0.051.
In the case of ETWTVFRRYSRFREMAKTLKLKYAELAALEFPPKKLFGNKDERVIAERRSHLEKYLRDFFS [H16A], the abundance fitness is reported as 0.135 ± 0.047.
Variant ETWTVFRRYSRFREMFKTLKLKYAELAALEFPPKKLFGNKDERVIAERRSHLEKYLRDFFS [H16F] has an abundance fitness of -0.044 ± 0.14.
ETWTVFRRYSRFREMNKTLKLKYAELAALEFPPKKLFGNKDERVIAERRSHLEKYLRDFFS [H16N] showed an abundance fitness of -0.353 ± 0.31.
Work on ETWTVFRRYSRFREMKKTLKLKYAELAALEFPPKKLFGNKDERVIAERRSHLEKYLRDFFS [H16K] yielded an abundance fitness of 0.062 ± 0.17.
ETWTVFRRYSRFREMLKTLKLKYAELAALEFPPKKLFGNKDERVIAERRSHLEKYLRDFFS [H16L] showed an abundance fitness of 0.379 ± 0.039.
With ETWTVFRRYSRFGEMHKTLKLKYAELAALEFPPKKLFGNKDERVIAERRSHLEKYLRDFFS [R13G] the abundance fitness was 0.023 ± 0.04.
In the case of ETWTVFRRYSRFSEMHKTLKLKYAELAALEFPPKKLFGNKDERVIAERRSHLEKYLRDFFS [R13S], the abundance fitness is reported as -0.137 ± 0.083.
Variant ETWTVFRRYSRFLEMHKTLKLKYAELAALEFPPKKLFGNKDERVIAERRSHLEKYLRDFFS [R13L] has an abundance fitness of -0.108 ± 0.12.
For ETWTVFRRYSRFEEMHKTLKLKYAELAALEFPPKKLFGNKDERVIAERRSHLEKYLRDFFS [R13E], the abundance fitness was -0.354 ± 0.1.
Work on ETWTVFRRYSRFQEMHKTLKLKYAELAALEFPPKKLFGNKDERVIAERRSHLEKYLRDFFS [R13Q] yielded an abundance fitness of -0.398 ± 0.16.
For ETWTVFRRYSRFVEMHKTLKLKYAELAALEFPPKKLFGNKDERVIAERRSHLEKYLRDFFS [R13V], the abundance fitness was -0.443 ± 0.073.
ETWTVFRRYSRFNEMHKTLKLKYAELAALEFPPKKLFGNKDERVIAERRSHLEKYLRDFFS [R13N] gave an abundance fitness of -0.265 ± 0.21.
ETWTVFRRYSRFTEMHKTLKLKYAELAALEFPPKKLFGNKDERVIAERRSHLEKYLRDFFS [R13T] gave an abundance fitness of -0.056 ± 0.065.
ETWTVFRRYSRFAEMHKTLKLKYAELAALEFPPKKLFGNKDERVIAERRSHLEKYLRDFFS [R13A] showed an abundance fitness of 0.096 ± 0.1.
In the case of ETWTVFRRYSRFCEMHKTLKLKYAELAALEFPPKKLFGNKDERVIAERRSHLEKYLRDFFS [R13C], the abundance fitness is reported as -0.333 ± 0.18.
ETWTVFRRYSRFWEMHKTLKLKYAELAALEFPPKKLFGNKDERVIAERRSHLEKYLRDFFS [R13W] gave an abundance fitness of -0.213 ± 0.072.
ETWTVFRRYSRFMEMHKTLKLKYAELAALEFPPKKLFGNKDERVIAERRSHLEKYLRDFFS [R13M] showed an abundance fitness of -0.153 ± 0.37.
In the case of ETWTVFRRYSRFYEMHKTLKLKYAELAALEFPPKKLFGNKDERVIAERRSHLEKYLRDFFS [R13Y], the abundance fitness is reported as -0.079 ± 0.25.
Variant ETWTVFRRYSRFDEMHKTLKLKYAELAALEFPPKKLFGNKDERVIAERRSHLEKYLRDFFS [R13D] has an abundance fitness of 0.391 ± 0.15.
For ETWTVFRRYSRFKEMHKTLKLKYAELAALEFPPKKLFGNKDERVIAERRSHLEKYLRDFFS [R13K], the abundance fitness was 0.1 ± 0.079.
With ETWTVFRRYSRFREVHKTLKLKYAELAALEFPPKKLFGNKDERVIAERRSHLEKYLRDFFS [M15V] the abundance fitness was 0.215 ± 0.057.
In the case of ETWTVFRRYSRFREQHKTLKLKYAELAALEFPPKKLFGNKDERVIAERRSHLEKYLRDFFS [M15Q], the abundance fitness is reported as -1.09 ± 0.36.
For ETWTVFRRYSRFREPHKTLKLKYAELAALEFPPKKLFGNKDERVIAERRSHLEKYLRDFFS [M15P], the abundance fitness was -0.993 ± 0.26.
Work on ETWTVFRRYSRFREWHKTLKLKYAELAALEFPPKKLFGNKDERVIAERRSHLEKYLRDFFS [M15W] yielded an abundance fitness of 0.229 ± 0.054.
In the case of ETWTVFRRYSRFREAHKTLKLKYAELAALEFPPKKLFGNKDERVIAERRSHLEKYLRDFFS [M15A], the abundance fitness is reported as -0.044 ± 0.078.
Work on ETWTVFRRYSRFREFHKTLKLKYAELAALEFPPKKLFGNKDERVIAERRSHLEKYLRDFFS [M15F] yielded an abundance fitness of -0.095 ± 0.18.
With ETWTVFRRYSRFRELHKTLKLKYAELAALEFPPKKLFGNKDERVIAERRSHLEKYLRDFFS [M15L] the abundance fitness was 0.265 ± 0.074.
Variant ETWTVFRRYSRFRETHKTLKLKYAELAALEFPPKKLFGNKDERVIAERRSHLEKYLRDFFS [M15T] has an abundance fitness of -0.455 ± 0.095.
ETWTVFRRYSRFRESHKTLKLKYAELAALEFPPKKLFGNKDERVIAERRSHLEKYLRDFFS [M15S] gave an abundance fitness of -0.908 ± 0.24.
For ETWTVFRRYSRFREGHKTLKLKYAELAALEFPPKKLFGNKDERVIAERRSHLEKYLRDFFS [M15G], the abundance fitness was -0.736 ± 0.076.
In the case of ETWTVFRRYSRFREEHKTLKLKYAELAALEFPPKKLFGNKDERVIAERRSHLEKYLRDFFS [M15E], the abundance fitness is reported as -1.09 ± 0.17.
Work on ETWTVFRRYSRFRERHKTLKLKYAELAALEFPPKKLFGNKDERVIAERRSHLEKYLRDFFS [M15R] yielded an abundance fitness of -1.09 ± 0.15.
For ETWTVFRRYSRFREMHKHLKLKYAELAALEFPPKKLFGNKDERVIAERRSHLEKYLRDFFS [T18H], the abundance fitness was -0.463 ± 0.37.
ETWTVFRRYSRFREMHKGLKLKYAELAALEFPPKKLFGNKDERVIAERRSHLEKYLRDFFS [T18G] showed an abundance fitness of -0.237 ± 0.077.
With ETWTVFRRYSRFREMHKCLKLKYAELAALEFPPKKLFGNKDERVIAERRSHLEKYLRDFFS [T18C] the abundance fitness was -0.143 ± 0.1.
In the case of ETWTVFRRYSRFREMHKKLKLKYAELAALEFPPKKLFGNKDERVIAERRSHLEKYLRDFFS [T18K], the abundance fitness is reported as -0.056 ± 0.13.
ETWTVFRRYSRFREMHKELKLKYAELAALEFPPKKLFGNKDERVIAERRSHLEKYLRDFFS [T18E] gave an abundance fitness of -0.223 ± 0.072.
Variant ETWTVFRRYSRFREMHKLLKLKYAELAALEFPPKKLFGNKDERVIAERRSHLEKYLRDFFS [T18L] has an abundance fitness of -0.247 ± 0.076.
For ETWTVFRRYSRFREMHKALKLKYAELAALEFPPKKLFGNKDERVIAERRSHLEKYLRDFFS [T18A], the abundance fitness was 0.176 ± 0.087.
Variant ETWTVFRRYSRFREMHKDLKLKYAELAALEFPPKKLFGNKDERVIAERRSHLEKYLRDFFS [T18D] has an abundance fitness of -0.806 ± 0.16.
